Assay results: US12692310B2, “ASIC1 channel antagonist antibody” (ShanghaiTech University, priority 2019, dated 2026)

Legend:
ΔhASIC1a = molecular target: T1, ΔhASIC1a (Homo sapiens, UniProt P78348); assay: Biacore SPR binding affinity, single cycle kinetic model; conditions: Biacore T200, purified ΔhASIC1a protein, read-out: apparent KD / binding affinity to ΔhASIC1a
T1 construct: A truncated ASIC1a (amino acids 13-464; ΔhASIC1a) was overexpressed and purified; made in house; host or cells: HEK293F (BacMam baculovirus)
T1 sequence (P78348 13-464): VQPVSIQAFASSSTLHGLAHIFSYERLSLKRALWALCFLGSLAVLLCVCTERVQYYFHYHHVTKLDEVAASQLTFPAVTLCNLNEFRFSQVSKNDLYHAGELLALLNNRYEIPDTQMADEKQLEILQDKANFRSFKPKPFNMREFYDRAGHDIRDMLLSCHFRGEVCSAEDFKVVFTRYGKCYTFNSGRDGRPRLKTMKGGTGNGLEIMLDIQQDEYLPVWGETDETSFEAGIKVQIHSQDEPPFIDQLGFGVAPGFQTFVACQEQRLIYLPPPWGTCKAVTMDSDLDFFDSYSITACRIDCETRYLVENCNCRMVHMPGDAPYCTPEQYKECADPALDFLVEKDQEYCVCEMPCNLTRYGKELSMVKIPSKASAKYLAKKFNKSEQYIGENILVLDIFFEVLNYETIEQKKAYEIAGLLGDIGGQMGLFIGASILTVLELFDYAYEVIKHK
Method: Surface plasmon resonance (SPR) and flow cytometry were used to study the interaction between the monoclonal antibody and hASIC1a. SPR-binding studies were performed on a Biacore T200 (GE Healthcare). The anti-Flag antibody was amine coupled to the surface of a biosensor chip CM5 series S (GE Healthcare). The recombinant Flag-tagged ΔhASIC1a was then immobilized onto the chip surface. […] The kinetics of binding/dissociation was measured as a change in the SPR signal resonance units. Apparent binding affinities were calculated using the Biacore T200 evaluation software with a single-cycle kinetic model.

[1] = pH stability, SEC-HPLC analysis; assay type: physicochemical; parameters: dose or concentration left out as unconfirmed; conditions: pH 7.4 to 5.0, 6 h at 37° C.
Method: The tolerance of ASC06-IgG1 to acidic conditions was tested. A concentrated ASC06-IgG1 solution ([…]) was incubated at different pH values (from 7.4 to 5.0) for 6 h at 37° C. and subjected to SEC-HPLC analysis.

hASIC1a-eYFP = molecular target: T2, hASIC1a-eYFP (Homo sapiens, UniProt P78348); assay: Species/subtype selectivity, FACS binding and ICC, transfected CHO-K1 cells; assay type: cell-based; parameters: overexpress the full-length hASIC1a (1-528 amino acids) protein fused with eYFP; expressed in transfected cells; host or cells: CHO-K1, transient
T2 sequence (P78348 1-528): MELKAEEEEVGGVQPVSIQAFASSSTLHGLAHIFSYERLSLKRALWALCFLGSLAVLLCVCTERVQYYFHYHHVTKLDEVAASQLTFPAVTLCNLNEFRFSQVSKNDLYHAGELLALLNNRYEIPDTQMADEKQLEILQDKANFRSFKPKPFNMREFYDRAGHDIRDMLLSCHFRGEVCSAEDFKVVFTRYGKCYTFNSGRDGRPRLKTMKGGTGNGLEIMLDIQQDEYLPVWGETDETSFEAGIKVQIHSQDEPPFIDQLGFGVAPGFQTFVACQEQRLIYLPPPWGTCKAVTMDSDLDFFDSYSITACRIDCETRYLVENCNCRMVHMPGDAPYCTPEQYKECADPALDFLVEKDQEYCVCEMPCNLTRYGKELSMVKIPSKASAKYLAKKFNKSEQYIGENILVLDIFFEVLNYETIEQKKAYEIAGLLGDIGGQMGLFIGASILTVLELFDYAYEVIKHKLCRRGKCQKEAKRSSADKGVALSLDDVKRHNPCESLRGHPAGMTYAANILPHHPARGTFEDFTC
Method: Cell Membrane Colocalization Studies Using Immunocytochemistry (ICC). Cells (CHO-K1) were seeded onto the poly-D-lysine-coated glass bottom 24-well plates at a concentration of 2×10^5 cells per mL. After 12 h of cultivation, the CHO-K1 cells were transfected with ASIC plasmids by Lipofectin 3000 reagent. Twenty-four hours after transfection, the cells were fixed in 4% paraformaldehyde and incubated for 30 min in a blocking solution (5% goat serum in PBS). The resulting cells were incubated with […] ASC06-IgG1 at 4° C. overnight followed by three PBS washes for 5 min each and incubation with the Alexa555-conjugated goat anti-human secondary antibody (Life Technology). After three additional PBS washes for 5 min each, the nuclei of the cells were stained with DAPI (#10236276001; Roche). The ICC analysis was performed on a laser scanning confocal microscopy (ZEISS LSM710) with a 63×N.A. 1.4 objective at 25° C. Images were collected on a 1,024×1,024-pixel EM-CCD camera. […]
To test the species and subtype selectivity of ASC06-IgG1, vectors encoding human ASIC1b-eYFP fusion, rat ASIC1a-eYFP fusion, mouse ASIC1a-eYFP fusion, hASIC2a-eYFP fusion, hASIC2b-eYFP fusion, and hASIC3a-eYFP fusion were constructed. […] FACS binding assay and immunocytochemistry (ICC) were carried out to determine if ASC06-IgG1 is able to bind to the cell surface-expressed ASIC homologs and isotypes.

[2] = molecular target: T3, hASIC1a-eYFP on CHO-K1 cells (Homo sapiens, UniProt P78348); assay: Immunocytochemistry on CHO-K1/hASIC1a cells; assay type: cell-based; conditions: ICC, confocal
T3 construct: overexpress the full-length hASIC1a (1-528 amino acids) protein fused with eYFP; expressed in transfected cells; host or cells: CHO-K1, transient
T3 sequence (P78348 1-528): T2 sequence (P78348 1-528)
Method: Cell Membrane Colocalization Studies Using Immunocytochemistry (ICC). Cells (CHO-K1) were seeded onto the poly-D-lysine-coated glass bottom 24-well plates at a concentration of 2×10^5 cells per mL. After 12 h of cultivation, the CHO-K1 cells were transfected with ASIC plasmids by Lipofectin 3000 reagent. Twenty-four hours after transfection, the cells were fixed in 4% paraformaldehyde and incubated for 30 min in a blocking solution (5% goat serum in PBS). The resulting cells were incubated with […] ASC06-IgG1 at 4° C. overnight followed by three PBS washes for 5 min each and incubation with the Alexa555-conjugated goat anti-human secondary antibody (Life Technology). After three additional PBS washes for 5 min each, the nuclei of the cells were stained with DAPI (#10236276001; Roche). The ICC analysis was performed on a laser scanning confocal microscopy (ZEISS LSM710) with a 63×N.A. 1.4 objective at 25° C. Images were collected on a 1,024×1,024-pixel EM-CCD camera. Data acquisition and analyses were performed with the ZEN 2012 professional software.
To understand whether ASC01-ASC06 specifically bind to the ASIC1a protein expressed on cell surface, the binding of the antibodies to CHO-K1/hASIC1a cells was evaluated using immunocytochemistry. The CHO-K1/hASIC1a cells overexpress the full-length hASIC1a (1-528 amino acids) protein fused with eYFP. […] It is likely that ASC01-ASC05 recognize specific ASIC1a confirmations or subpopulations.
The ASC06 antibody was converted into a full length IgG1 form (ASC06-IgG1) for further study. […] The binding of ASC06-IgG1 to CHO-K1/hASIC1a cells was evaluated using immunocytochemistry, in comparison with the ASC06 (scFv format) antibody.

B1: ASC06-IgG1: ASC06 antibody converted into a full length IgG1 form (antibody, V domains shown)
VH: QVQLQQSGGGLVQPGGSLRLSCAASGFTFSSYAMSWVRQAPGKGLEWVSAISGSGGSTYYADSVKGRFTISRDNSKNTLYLQMNSLRAEDTAVYYCAKDSFYGYSKGDWGQGTLVTVSS
VL: QSALTQPASVSGSPGQSITISCTGTSSDVGAYNYVSWYQQQPGKAPKLMIYGVSNRPSGVSNRFSGSKSGNAASLTISGLQAEDEADYYCSSYTSSSTYVFGTGTKLTVLG
ΔhASIC1a
  Kd: 7.9 nM
[1]
  degradation or aggregation by SEC-HPLC: no significant degradation or aggregation
hASIC1a-eYFP; FACS
  FACS recognition of human ASIC1a: recognized
hASIC1a-eYFP; ICC staining
  ICC membrane co-localization with hASIC1a-eYFP: membrane co-localization
[2]
  membrane co-localization with hASIC1a: membrane co-localization with hASIC1a
